In FireProtDB (doi:10.1002/pro.5560060717):
Several values for one entry are separate records, joined by “and”; a condition that tells them apart may be missing. Equal values may be shown once.

B1: Gamma-crystallin B, P02526 (parent)
chain: MGKITFYEDRGFQGHCYECSSDCPNLQPYFSRCNSIRVDSGCWMLYERPNYQGHQYFLRRGDYPDYQQWMGFNDSIRSCRLIPQHTGTFRMRIYERDDFRGQMSEITDDCPSLQDRFHLTEVHSLNVLEGSWVLYEMPSYRGRQYLLRPGEYRRYLDWGAMNAKVGSLRRVMDFY

Variants of: B1
Conditions: Bos taurus; pH 2; 20 °C; Urea; Fluorescence; NaCl-HCl 100 mM; reversible: yes; structure 4GCR; whole UniProt chain shown

Variant	denaturant midpoint (higher = more stable)
MGKITFYEDRGFQGHCYECSSDCPNLQPYFSRCNSIRVDSGCWMLYERPNYQGHQYWLRRGDYPDYQQWMGFNDSIRSCRLIPQHTGTFRMRIYERDDFRGQMSEITDDCPSLQDRFHLTEVHSLNVLEGSWVLYEMPSYRGRQYLLRPGEYRRYLDWGAMNAKVGSLRRVMDFY [F57W]	1.5 M and 4.2 M
